Experimental data taken from patent US5726154A, “Stabilization and oral delivery of calcitonin” (University of Utah Research Foundation, priority 1996, dated 1998).

Tests used:
[1] = in water at room temperature; cited from earlier work
[2] = Stability of hCT upon storage in liquid formulations (precipitate, gel or turbidity indicative of fibrillation); format: physicochemical; settings: bile salts (0.5-1.0%: taurocholate, deoxycholate, glycocholate), neutral or acidic pH
Method: As used herein, "stable," "stabilizing," and similar terms refer to inhibiting the precipitation, fibrillation, or gelation of human calcitonin molecules upon storage in a liquid medium at a temperature of about 4°-25° C. Human calcitonin is considered "stable" or "stabilized" in a selected liquid medium when no precipitation, fibrillation, or gellation is detected upon storage at a temperature of about 4°-25° C. for a period of at least about 6 months.
Since hCT is highly unstable in aqueous solutions of neutral or basic pH, acidic formulations were investigated to determine whether increased stability could be obtained. […]
Samples (1-2 ml) containing 0.2-10 mg/ml of hCT in aqueous formulations were prepared and then maintained in 4 ml borosilicate vials at ambient temperature or at 4° C. […] In some cases, the concentration of unaggregated hCT was determined using reversed-phase HPLC (Waters modular system with Waters model 745 integrator, Bedford, Mass.) on a Vydac C4 column (4.6 mm×25 cm) equilibrated at a flow rate of 1 ml/min with 0.1% (v/v) trifluoroacetic acid containing 30% (v/v) acetonitrile. […] Absorbance (at 220 nm) of the eluent was recorded and processed to quantify the amount of hCT injected. […]

[3] = Reversed-phase HPLC analysis of unaggregated hCT in formulations; format: physicochemical; settings: 0.01% acetic acid containing 1.0% SDS; 8 months of storage at ambient temperature
Method: Samples (1-2 ml) containing 0.2-10 mg/ml of hCT in aqueous formulations were prepared and then maintained in 4 ml borosilicate vials at ambient temperature or at 4° C. The samples were checked periodically for the presence of a precipitate, a gel, or turbidity, which are indicative of fibrillation. In cases of formulations in which the hCT was very unstable, changes in turbidity could be followed over time by spectrophotometry at 340 nm. T. Arvinte et al., The structure and mechanism of formation of human calcitonin fibrils, 268 J. Biol. Chem. 6415-22 (1993), hereby incorporated by reference. In some cases, the concentration of unaggregated hCT was determined using reversed-phase HPLC (Waters modular system with Waters model 745 integrator, Bedford, Mass.) on a Vydac C4 column (4.6 mm×25 cm) equilibrated at a flow rate of 1 ml/min with 0.1% (v/v) trifluoroacetic acid containing 30% (v/v) acetonitrile. Five minutes after injection of a 100 μl sample, a linear gradient of 0.67% acetonitrile/min was applied. Absorbance (at 220 nm) of the eluent was recorded and processed to quantify the amount of hCT injected.
HPLC analysis of hCT in 0.01% acetic acid or in 0.01% acetic acid containing 1.0% SDS was performed to determine the state and concentration of unaggregated hCT in such formulations. […]

[4] = 5 mg/ml hCT in 0.0001%-1.0% acetic acid; could not be duplicated by the applicant; cited from earlier work

| Compound | Critical micelle concentration (CMC) [1] [%] | Time to gel formation [2] [h] | HPLC profiles and UV spectra after storage [3] | Period of stable formulation reported by EP 490549 [4] [months] |
| --- | --- | --- | --- | --- |
| CCCCCCCCCCCCOS(=O)(=O)[O-].[Na+] [SDS, sodium dodecyl sulfate] | 0.24 | – | – | – |
| Human calcitonin [hCT] | – | ≤ 1 | not altered | 8 |
